Results from the supplement of paper PMC10567573.

B1: CHMP4C (parent)
chain: TNIRLPNVPSSSLPAQPNRKPGMS

Variants of: B1
Experiment: protein stability index of a GFP-peptide fusion (GPS, HEK-293T) (PSI 1-6); higher = more stable
Conditions: c terminus: a fixed tail appended
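Note: lentivirally expressed fusions sorted by FACS into six bins by GFP to DsRed ratio, PSI derived from sequencing read proportions per bin multiplied by bin number.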

Protein stability index of substitutions, site by site:
I3: Y 4.33, Q 4.87, C 4.55, W 4.13, E 4.92, N 4.81, F 4.2, K 3.99, V 4.54, S 4.71, H 4.62, T 4.82, D 4.63, P 4.77, R 4.41, A 4.73, L 4.26, M 4.76, G 4.72
Q16: K 4.03, D 4.24, E 4.69, F 4.05, N 4.73, A 4.7, V 4.71, L 4.32, M 3.7, S 4.91, P 4.94, G 4.51, T 4.53, W 3.34, C 4.39, R 5.25, I 4.35, H 4.44, Y 3.99
S10: A 4.62, H 4.76, T 4.1, V 4.2, L 4.09, D 4.84, C 4.83, I 4.6, M 4.48, F 4.05, R 4.06, E 4.51, W 4.46, Q 4.73, P 4.39, Y 4.22, N 3.58, G 4.75, K 4.24
S12: I 4.56, T 4.07, E 5.06, D 4.67, R 4.51, Y 4.12, H 4.35, V 4.8, M 4.33, A 4.51, G 4.27, Q 4.66, L 3.44, F 4.29, N 4.68, W 3.25, K 4.44, C 4.18, P 4.34
V8: T 4.69, H 4.77, D 4.54, Q 4.43, L 4.4, F 4.29, S 4.49, I 4.76, W 4.19, C 3.99, E 5.14, K 4.63, P 5.05, R 4.42, N 4.58, A 4.51, G 4.47, M 4.61, Y 4.02
R4: T 4.61, H 4.06, P 4.73, C 4.77, I 3.37, A 4.79, W 2.96, E 4.68, L 4.26, M 4.51, S 4.29, Y 4.24, N 2.96, D 4.34, Q 4.19, F 4.18, V 4.35, G 4.69, K 3.88
L5: K 4.71, S 4.18, D 5.05, E 4.46, Y 4.58, Q 4.69, C 4.92, G 5.1, A 4.71, R 4.42, T 4.74, I 4.61, F 4.38, W 4.31, V 4.7, P 4.88, M 4.76, N 4.68, H 4.62
P9: R 4.45, E 4.94, Y 3.62, G 4.52, K 4.78, I 4.3, D 4.77, F 4.22, M 4.36, S 4.68, V 4.71, N 4.89, T 4.55, A 4.62, C 4.33, Q 5.12, H 4.49, L 3.85, W 3.53
L13: A 4.88, T 5.11, R 4.82, K 4.46, H 4.25, Q 4.09, I 4.54, N 4.52, W 4.45, G 4.27, S 4.76, V 4.88, Y 4.1, M 4.6, C 4.47, F 4.35, E 4.25, D 4.4
P6: G 4.26, R 4.04, K 4.23, W 3.34, D 4.36, M 3.36, N 4.18, E 4.48, Y 2.66, A 3.96, Q 3.19, S 4.44, T 3.75, V 3.1, H 3.02, C 3.56, F 3.28, L 2.99, I 2.71
P17: A 3.6, N 4.72, M 4.56, F 4.24, W 3.64, S 4.21, Q 3.82, Y 4.05, T 4.75, D 4.35, R 4.2, I 3.87, V 4.67, G 4.71, E 4.96, H 4.26, C 3.76, K 4.61, L 4.14
N2: K 4.24, M 4.66, L 3.44, G 4.24, W 3.01, T 4.59, Q 4.27, I 3.44, Y 3.51, R 4.08, P 5.25, S 4.7, H 4.51, V 4.16
A15: H 4.59, L 4.19, C 4.54, I 4.34, K 4.58, S 4.56, F 4.21, R 4.71, V 4.59, N 4.44, P 4.71, E 4.64, M 4.16, T 4.55, W 4.01, Q 5.06, D 4.75, Y 4.26, G 4.69
P14: A 4.14, I 4.22, Y 3.67, N 4.41, R 4.4, M 4.47, D 4.5, H 4.37, W 4.01, L 4.19, Q 4.98, T 4.39, F 4.22, E 4.7, V 4.93, S 4.69, G 4.67, K 4.39, C 3.94
N18: D 4.51, A 4.45, W 3.42, V 4.6, E 4.41, S 4.21, F 4.33, Q 4.87, L 4.25, T 4.89, M 4.66, R 4.69, K 4.62, G 4.25, P 4.58, C 3.97, Y 4.36, H 4.85, I 4.3
N7: L 4.67, V 4.45, C 4.56, E 4.26, G 4.76, S 4.89, T 4.95, Y 4.13, F 3.38, R 4.41, H 4.62, D 4.49, P 5.37, W 4.11, Q 4.1, M 4.82, I 3.95, K 4.52, A 4.61
S11: M 3.73, V 4.13, N 4.19, P 4.61, W 3.97, K 4.49, H 4.6, R 4.79, G 4.51, Y 4.28, L 4.01, E 4.1, I 4.68, D 4.94, Q 4.53, C 4.86, T 3.48, F 4.12, A 4.87
R19: L 4.58, Q 4.62, C 4.27, S 4.71, M 4.37, G 4.49, K 4.33, V 4.71, T 4.57, D 4.66, I 4.61, A 4.61, F 4.13, E 4.86, N 4.69, P 4.77, H 4.33
